According to patent US6861508B2, “Transcriptional intermediary factor-2” (Institut National de la Sante et de la Recherche Medicale, priority 1996, dated 2005):

What was measured:
[1] = tested on: CBP (residues 1872 to 2165); experiment: GST-CBP pull-down of TIF2 polypeptides; format: binding
Procedure: (d) Mapping of the CBP-interacting domain of TIF2. GST puld own experiments were performed with ^35S-labeled in-vitro-translated TIF2 polypeptides and bacterially produced GST and GST-CBP (expressing CBP residues 1872 to 2165).
(c) Interaction of TIF2 AF-1 mutants with CBP in vitro. GST pull-down experiments were performed with ^35S-labeled in-vitro-translated GAL-TIF2 fusion proteins and bacterially produced GST and GST-CBP.
(c) Interaction of TIF2.13 wildtype and TIF2.13 mutants with CBP in vitro. GST pull-down experiments were performed with ^35S-labeled in-vitro-translated VP16-TIF2.13 polypeptides and bacterially produced GST and GST-CBP.
(§1) Furthermore, it was reported that SRC-1, which belongs to the same gene family as TIF2, interacts with CBP and p300 (Kamei, Y. et al., Cell 85:403-414 (1996); Yao, T. P. et al., Proc. Natl. Acad. Sci. USA 93:10626-10631 (1996); Hanstein, B., et al., Proc. Natl. Acad Sci USA 93:11540-11545 (1996)). Using GST-fusion protein-based interaction and animal cell-based two hybrid assays, we therefore analyzed whether TIF2 could also interact with CBP. […] A GST-CBP fusion protein was expressed in E. coli and used for puU-down assays with in vitro translated TIF2 polypeptides (FIG. 7d).

[2] = target: T1, GST-hRARα(DEF) (pGEX2T-hRARα(DEF), amino acids 153-462) (human, UniProt P10276 153-462); experiment: GST pull-down with 35S in-vitro-translated TIF2 polypeptides, with or without 10^-6 M all-trans-retinoic acid
T1 construct: range 153-462; Bacterially produced; also called GST-RAR; GST-RARα(DEF); not shown: glutathione-S-transferase (GST) of pGEX2T (Pharmacia)
T1 sequence (looked up): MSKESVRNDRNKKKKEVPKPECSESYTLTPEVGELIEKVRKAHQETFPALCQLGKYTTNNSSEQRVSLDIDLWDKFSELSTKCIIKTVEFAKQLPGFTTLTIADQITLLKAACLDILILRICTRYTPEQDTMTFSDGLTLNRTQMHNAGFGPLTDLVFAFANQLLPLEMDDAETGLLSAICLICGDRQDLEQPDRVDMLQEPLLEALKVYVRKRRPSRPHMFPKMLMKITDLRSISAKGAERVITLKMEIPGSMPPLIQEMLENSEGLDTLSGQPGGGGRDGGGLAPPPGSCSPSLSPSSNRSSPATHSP

GAL4 reporter = experiment: GAL4 DBD-TIF2 fusion CAT reporter transactivation assay; format: cell-based; conditions: Cos-1 and/or HeLa cells
In short: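 Transiently transfected HeLa and Cos-1 cells received plasmids (3 μg; 1-10 μg in titration) expressing TIF2 regions or mutants fused to GAL4 DBD(1-147), plus 1 μg (17m)5-G-CAT reporter. CAT activity measured by TLC phosphoimaging or CAT ELISA, normalized to cotransfected β-galactosidase, expressed as fold over GAL4 DBD alone; mean of ≥3 experiments.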

GAL-CBP = experiment: two hybrid analysis of CBP-TIF2 interaction in HeLa cells; format: cell-based
Procedure: (e) Two hybrid analysis of the CBP-TIF2 interaction in mammalian cells in vivo. HeLa cells were transfected with 0.2 μg of the GAL4 or GALA-CBP (expressing CBP residues 1872 to 2165) expression vectors together with 0.2 μg of the VP16 or VPI6-TF2 expression vectors in the presence of 2 μg of (17m)5-TATA-CAT reporter plasmid. Fold induction relative to the GAL-CBP activity is indicated. The mean of three experiments is shown; in each case, values varied by less than ±20%.
HeLa cells were transfected with 0.2 μg of GAL4 or GAL-CBP expression vectors together with 0.2 μg of VP16 or VP16-TIF2.13 expression vectors in the presence of 1 μg of (17m)5-TATA-CAT reporter plasmid. Data are represented as fold induction of the activity seen with GAL-CBP alone. The mean and standard, deviation obtained from ten experiments are shown. The expression levels were confirmed by Western blotting with antibodies directed against GAL4 DBD and VP16 AAD (data not shown).
as §1

binding to GST-CBP in vitro [1]: did not show any binding | binding result [2]: no binding
B1: TIF2.2 (TIF2 amino acids 1288-1464) (other)
chain: NPRIPQANAQQFPFPPNYGISQQPDPGFTGATTPQSPLMSPRMAHTQSPMMQQSQANPAYQAPSDINGWAQGNMGGNSMFSQQSPPHFGQQANTSMYSNNMNINVSMATNTGGMSSMNQMTGQISMTSVTSVSTSGLSSMGPEQVNDPALRGGNLFPNQLPGMDMIKQEGDTTRKYC
notes: In-vitro-translated; also called AD2
transcriptional activation of GAL4 reporter by GAL4 DBD fusion (GAL4 reporter): able to activate transcription | interaction with GAL-CBP, two hybrid (GAL-CBP): not
